Measured values from article PMC4858740 (2016).

Tests used:
Assay in all cases: SPR
SLAMF6 ECD = target: T1, SLAMF6 ECD (human, UniProt Q96DU3 22-226)
T1 chain: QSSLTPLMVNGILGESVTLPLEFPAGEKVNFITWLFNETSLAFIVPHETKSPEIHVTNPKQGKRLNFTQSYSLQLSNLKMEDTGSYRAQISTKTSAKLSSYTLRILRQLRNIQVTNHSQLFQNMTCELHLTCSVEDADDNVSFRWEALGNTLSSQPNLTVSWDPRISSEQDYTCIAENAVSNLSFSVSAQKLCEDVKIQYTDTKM

SLAMF4 ECD = target: T2, SLAMF4 ECD (human, UniProt Q9BZW8 22-229)
T2 chain: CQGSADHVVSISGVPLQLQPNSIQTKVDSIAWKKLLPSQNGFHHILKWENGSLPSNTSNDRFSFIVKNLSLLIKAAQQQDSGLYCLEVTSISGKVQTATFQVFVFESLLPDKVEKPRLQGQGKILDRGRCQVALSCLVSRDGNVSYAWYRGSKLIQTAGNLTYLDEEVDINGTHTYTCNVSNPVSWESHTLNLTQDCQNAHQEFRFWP

CD45RO ECD = target: T3, CD45RO ECD (human)
T3 chain: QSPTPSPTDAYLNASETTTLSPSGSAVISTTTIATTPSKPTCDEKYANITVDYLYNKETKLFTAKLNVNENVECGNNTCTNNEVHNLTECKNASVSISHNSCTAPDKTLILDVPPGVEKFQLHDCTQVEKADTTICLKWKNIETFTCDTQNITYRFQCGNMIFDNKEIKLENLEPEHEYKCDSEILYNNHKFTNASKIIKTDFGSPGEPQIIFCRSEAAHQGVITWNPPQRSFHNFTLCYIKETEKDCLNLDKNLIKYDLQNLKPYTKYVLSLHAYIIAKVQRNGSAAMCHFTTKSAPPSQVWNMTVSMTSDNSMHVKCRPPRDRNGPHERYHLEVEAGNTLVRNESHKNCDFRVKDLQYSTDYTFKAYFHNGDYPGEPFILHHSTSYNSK

B1: HAdV-B55 CR1β (Fc fusion)
chain: QTVVSIPLGHNYTLIGPPITSEVIWTKLGSVDYFDIICNKTKPIIVTCNIQNLTLINVSKVYSGYYYGYDRYSSQYRNYLVRVTQSKTTKMPNMAEIRSDDNSLETFTSSTTPDEKNIPDS
Kd (SLAMF6 ECD): 13 nM

B2: HAdV-F41 CR1β (Fc fusion)
chain: AVPEKTLNNLVRVYALVGTNLSLDSMKTPQIDELTSLSWIKQEDNPNKNLQSFFFIGQKLCEVTKDKITVFNYYPLEFSCANVTLYLYNLKTDDSGLYNGKAHTKELEHNTYVRLYVIDIPPPKCDITSRYLGIQATGEDYCLIEINCTNSKYPAVVKFNGRQSNFYHYVSENGNKELPNFYETHITVNGTHKSFHFNYPFNDLCQTTSALQYNDNVQ
Kd (SLAMF4 ECD): 44 nM

B3: HAdV-A18 CR1β (Fc fusion)
chain: QTAERPLKVVAEAGHNVTLPHLLPGFNKTGHVTWLIEIPDYGSAPSNKFVFSGQKLCEFASKNLTWSFPQLIFKCDNYDITLFWLKIENSAIYNVKNTIEATESNIYYQLTVIQINPPNCIITSKYLTEDYCHITINCTNSRYPNKVIFNNVTRSYYGYAKGSSTLPNYFTTSFNVSGITKTFKHNYPFSELCTYPSSENFYNSKETVST
Kd (SLAMF4 ECD): 62 nM

B4: HAdV-D39 E3/49K (Fc fusion)
chain: KIDNEDVIGHWGKNITLVGPPEKPIEWHGPRVQLCDGSKILHPEFNHTCNEQNLTLIFLNNSFNGKYYGIRKDGFGMKQYTLKVIAPKASTRRPLSPPQQIDVRMGQNVTLVGPVDTPVNWHGPKHELCRGSQVIHPEVNHTCNEQNLTLLFVNYTFWGAYLGFNRYGTDRVHYEVTIIDGFKNAGQQKDETGQHNPSNKDRPNPKVKNPQRTKNTHKTNTQNKKDIEKDFRKGTNQTLVGPPGSKVDWYEGKNGDLVKLCDGKSGLKVSCNDQNITLINVNETYSGTYYGSNDEDHRQYKVTVYTIPRNETVKIQPHTTKGTTGGSTVNEQFALQQDNDRTNQNDEQIPSTT
Kd (CD45RO ECD): 0.39 nM

B5: HAdV-D43 E3/49K (Fc fusion)
chain: QIEHEKQSVQWGKNITLVGPNDKPVEWHGPRDQLCKGKQILHPEFNHTCNEQNLTLLFVNNTFQGIYYGIRNDGRGMKQIQLTVVAPPASTRKPLSKPKQVNVQYGHNVTLEGPPGIPIDWLGPTNQLCKGKEILHPEINHTCNVQNLTLLFVNYTHRGAYFGFNKDGTDRHHYEVTILDGFTNAGQTKEESVSDKSKGKTSSKEKKTQKNNSQRNDDVKELDFPSGSNQTLVGPPGSKVDWYTTKNGDFTKLCDGLNGPKNLCNYQNLTLRNVSRQDEGTYFGSNEQSKHYRVTVYTKPRNQTKRIQPYTTKGTTKSTLGNHSFELQLADDQSNQQDQQIPSTT
Kd (CD45RO ECD): 0.38 nM

B6: HAdV-D51 E3/49K (Fc fusion)
chain: LLESKVVKIPYGSTYVLVGPRDPPVQWFGGGDFTMFCNGSKTHLQNIRHTCNEQNLTLLSVGYGHRGDYYGFRHDNTGRKHYKVIIEAPPPVTRKPLSEIKYVNVTMGQNLTLSGPPGTPVTWHGEGHKLCEGKNVFYRELNHTCTEKDLILLFVNRTHNGPYIGYNKEGTDREHYEVSVLDLMPIAGQGLDSKNKEQKIPPKRKSKDKVQEVNFPTGTDQTLIGPPGQKIDWHVSSNDGQFKKLCETKDGKHSCHGRNITIFNISRADEGSYYGSSHDGSSHYKVTVYDKSSFGKAKIKIDPYTTKGTTTENYEFELQQGNDESDDQKQIPSTT
Kd (CD45RO ECD): 0.06 nM

B7: HAdV-D28 E3/49K (Fc fusion)
chain: QAVHVNLEICYGCNGTLIGPPKTPVEWYDGRGHKLCAGTDTFRKELNHTCNLQNMTLTFVNLTHKGTYYGFGSDNKNSRVYQVTIKPPVLTTRRPLLKPEDVVITKGNNKTLVGPPDTPVDWYDGSGHKLCKGKEVHYPELNHTCNEQNLTLIFVNATFKGTYYGFRKDGTDKKEYRVTIDDLYAKQLKQEKDEKPRSGHDKQKSKSQERQNPKTEERHEHRDVVKEVSFRTGTNQTLVGPPGSNVDWLKIGNGGTFSELCKGDDKHYSCNSQNLTIINVTRSDEGSYYGSNDDSAHYRVSVYDPVQKKRVMKIQPHTTKTTTEGTTKSSTNESDENFALQQGNNGENNQSDETNIPS
Kd (CD45RO ECD): 0.33 nM

B8: HAdV-D47 E3/49K (Fc fusion)
chain: EAETVIVDVKSGTNHTLEGPRKTPVQWYGGADFIMYCNGSKIHHKELNHTCSIQNITLTFINRTHHGTYYGFASDNQNSKVYHVRVDLEPPRPRATLAPPQDITIKYGSNRTLQGPNVTPVSWYDGEGNRFCDGDEIDHPELNHTCNAQNLTLLFVNETHERTYYGVSGDWKQRNEYDVTVIKTQNHKNAMQQKVEQKVEQKPSKRPKQKTLQTTIQVTIPIGSNYTLVGPSPPVSWHTTKNGLTELCNGNPILRHTCDGQNITLINVNATFEADYYGSNNNSESKHYRVKVFKQRKDQALLFRPLTTKGTTGGSTVNEQFALQQGNDKTNQNDEQIPSTT
Kd (CD45RO ECD): 0.01 nM

B9: HAdV-D37 E3/49K (Fc fusion)
chain: GFHTINATWWANITLVGPPDTPVTWYDTQGLWFCNGSRVKNPQIRHTCNDQNLTLIHVNKTYERTYMGYNRQGTKKEDYKVVVIPPPPATVKPQPEPEYVFVYMGENKTLEGPPGTPVTWFNQDGKKFCEGEKVLHPEFNHTCDKQNLILLFVNFTHDGAYLGYNHQGTQRTHYEVTVLDLFPDSGQMKIENHSEETEQKNDEHHNWQKQGGQKQGGQKTNQTKVNDRRKTAQKRPSKLKPATIEAMLVTVTAGSNLTLVGPKAEGKVTWFDGDLKRPCEPNYRLRHECNNQNLTLINVTKDYEGTYYGTNDKDEGKRYRVKVNTTNSQSVKIQPYTRQTTPDQEHKFELQFETNGNYDSKIPSTT
Kd (CD45RO ECD): 0.11 nM

B10: HAdV-D19a E3/49K (Fc fusion)
chain: GFHTINATWWANITLVGPPDTPVTWYDTQGLWFCNGSRVKNPQIRHTCNDQNLTLIHVNKTYERTYMGYNRQGTKKEDYKVVVIPPPPATVKPQPEPEYVFVYMGENKTLEGPPGTPVTWFNQDGKKFCEGEKVLHPEFNHTCDKQNLILLFVNFTHDGAYLGYNHQGTQRTHYEVTVLDLFPDSGQMKIENHSEETEQKNDEHHNWQKQGGQKQGGQKTNQTKVNDRRKTAQKRPSKLKPATIEAMLVTVTAGSNLTLVGPKAEGKVTWFDGDLKRPCEPNYRLRHECNNQNLTLINVTKDYEGTYYGTNDKDEGKRYRVKVNTTNSQSVKIQPYTRQTTPDQEHKFELQFETNGNYDSKIPSTT
Kd (CD45RO ECD): 0.06 nM

B11: HAdV-D24 E3/49K (Fc fusion)
chain: GIHIINATWWDNITLVGPSDTPVTWYDGKGLQFCDGSTVKNPQIRHTCNDQNLTLIHVNKTHERTYMGYRHDSKGKVDYKVTVIPPPPATVKPQPDPENVFVYMGNNVTLVGPPGIPVSWYYHNGTQFCDGDKIIHPEFNHTCDKQNLTLLFVNFTHDGGYLGFNYKGTQRIQYEVIVLDRFPNSGQMKIEEQSEETEQKHTEHNKAGQKQGIDTNQKKANNRQKPSQRPSRRRPTNTPETKQLTVSIGSNLTLVGPDGKVTWYDGDLKRPCEEQNYRLPHQCSAQNLTLINVTKSHEGTYYGTNDKDESKRYRVKVNTTNSQAVKINPYTRPTTPDQKHRFELQIENNANDEESKIPSTT
Kd (CD45RO ECD): 0.08 nM

B12: HAdV-D58 E3/49K (Fc fusion)
chain: SQAGFHTINATWWANITLVGPSDTPVTWYDKQGMQFCDGNTVKNPQIRHECNEQNLTLIHVNKTHERTYMGYNRQSTHKEDYKVIVIPPPPATVKPQSGPEYVYVNMGENKTLVGPPGIPVTWYDGEGNKFCDGEKVEHAEFNHTCDVQNLTLLFINLTHDGAYLGYNHQGTKRTWYEVVVTDGFPKSGEMKIEDQSRQTEQKQTGQKQNEHKQGGQKQEGQKETSQKKANDKQKATHRRPSKLKPHTPEAKLITVSSGSNLTLLGPDGKVTWYDDDLKRPCEPGYKLNCKCDNQNLTLINVTKLYEGVYYGTNDGGNGKRYRVKVNTTNSQNVKIQPYTRPTTPDQKHRFELQIDYNQDNDKIPSTT
Kd (CD45RO ECD): 0.38 nM

B13: HAdV-D9 E3/49K (Fc fusion)
chain: GIINLNVSWGMNLTLVGPSDLPVTWYDGKGMQFCDGNTIKNPQIKHSCNQQNLTLLNADKSHERTYLGYRHDSKGKVDYKVTVIPPPPATRKPLSEPHYVTVTMGDNITLVGPSDLPVTWYDGEGNKFCDGEKVEHAEFNHTCNIQNLTLLFVNLTHNGAYIGYNKDGSDRELYEVSVKTLFQNGAGQSKVEQGNKGKPNTAQSGGKKTKTEHRNQSPKRKSTNNLQPTQLYVRPFTNVSLTGPPNGKVTWYDGELNDPCEQKYKLRTFCNQQNLTLINVSSTYDGIYYGTDEKDKANRYRIKVNTTNHKTVKIKPHTREPPAVQEKQFELQDAETDENESKIPSAT
Kd (CD45RO ECD): 0.08 nM
